Data from patent publication US20220305098.

Biological target: T1, S5a protein (Ube3a target protein), P55036
T1 chain: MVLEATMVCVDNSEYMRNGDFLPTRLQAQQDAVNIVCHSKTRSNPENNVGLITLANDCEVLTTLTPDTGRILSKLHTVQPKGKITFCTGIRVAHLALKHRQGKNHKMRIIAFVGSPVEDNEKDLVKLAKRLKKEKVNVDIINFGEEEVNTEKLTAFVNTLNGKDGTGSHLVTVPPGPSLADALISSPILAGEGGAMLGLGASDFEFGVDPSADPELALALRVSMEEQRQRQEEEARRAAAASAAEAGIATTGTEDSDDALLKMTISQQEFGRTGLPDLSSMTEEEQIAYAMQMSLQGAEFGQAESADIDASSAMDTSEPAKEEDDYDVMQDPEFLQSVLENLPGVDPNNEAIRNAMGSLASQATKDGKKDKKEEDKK

B1: Human Ube3a isoform 1 with 8xN-glycan sites and IL2 secretion signal (expressed from the hAS8 lentiviral vector) (protein)
chain: MKRAAAKHLIERYYHQLTEGCGNEACTNEFCASCPTFLRMDNNTAAIKALELYKINAKLCDPHPSKKGASSAYLENSTGAPNNTCSEIKMNKKGARIDFKDVTYLTEEKVYEILELCREREDYSPLIRVIGRVFSSAEALVQSFRKVKQHTKEELKSLQAKDEDKDEDEKEKAACSAAAMEEDSEASSSRIGDSSQGDNNTQKLGPDDVSVDIDAIRRVYTRLLSNEKIETAFLNALVYLSPNVECDLTYHNVYSRDPNYLNLFIIVMENRNLHSPEYLEMALPLFCKAMSKLPLAAQGKLIRLWSKYNADQIRRMMETFQQLITYKVISNEFNSTNLVNDDDAIVAASKCLKMVYYANVVGGEVDTNHNEEDDEEPIPESSELTLQELLGEERRNKKGPRVDPLETELGVKTLDCRKPLIPFEEFINEPLNEVLEMDKDYTFFKVETENKFSFMTCPFILNAVTKNLGLYYDNRIRMYSERRITVLYSLVQGQQLNPYLRLKVRRDHIIDDALVRLEMIAMENPADLKKQLYVEFEGEQGVDEGGVSKEFFQLVVEEIFNPDIGMFTYDNSTKLFWFNPSSFETEGQFTLIGIVLGLAIYNNTILDVHFPMVVYRKLMGKKGTFRDLGDSHPVLYQSLKDLLEYEGNVEDDMMITFQISQTDLFGNPMMYDLKENGDKIPITNENRKEFVNLYSDYILNKSVEKQFKAFRRGFHMVTNESPLKYLFRPEEIELLICGSRNLDFQALEETTEYDGGYTRDSVLIREFWEIVHSFTDEQKRLFLQNNTGTDRAPVGGLGKLKMIIAKNGPDTERLPTSHTCFNVLLLPEYSSKEKLKERLLKAITYAKGFGML
  ubiquitination activity of the Ube3a S5a target protein (blot, bands of ubiquitinated S5A): different mutated forms of Ube3a ubiquitinate their S5A target
